One data set concerns the target HELB WT (Homo sapiens, UniProt Q8NG08 1-1087). Briefly: fluorescence anisotropy; 10 mM Mg(OAc)2, no nucleotide; 25 mM HEPES pH 7.5, 10 mM KOAc, 10 mM Mg(OAc)2, 0.1 mM EDTA, 2 mM beta-mercaptoethanol, 0.1 mg/ml BSA, 1 nM DNA, 30 min, room temperature. The note with it: protein: recombinant; tags: none (His-SUMO cleaved by Ulp1); label: 3'-6-carboxyfluorescein; single strand. (In general: Fluorescence polarisation rises when a labelled molecule tumbles more slowly, as on binding a larger partner.)

For another data set, the target named is HELB D506G (Homo sapiens, UniProt Q8NG08 1-1087, D506G). The description is as above. The following applies: protein: recombinant; tags: none (His-SUMO cleaved by Ulp1); label: 3'-6-carboxyfluorescein; single strand.
Chain of HELB D506G (Q8NG08 whole entry D506G): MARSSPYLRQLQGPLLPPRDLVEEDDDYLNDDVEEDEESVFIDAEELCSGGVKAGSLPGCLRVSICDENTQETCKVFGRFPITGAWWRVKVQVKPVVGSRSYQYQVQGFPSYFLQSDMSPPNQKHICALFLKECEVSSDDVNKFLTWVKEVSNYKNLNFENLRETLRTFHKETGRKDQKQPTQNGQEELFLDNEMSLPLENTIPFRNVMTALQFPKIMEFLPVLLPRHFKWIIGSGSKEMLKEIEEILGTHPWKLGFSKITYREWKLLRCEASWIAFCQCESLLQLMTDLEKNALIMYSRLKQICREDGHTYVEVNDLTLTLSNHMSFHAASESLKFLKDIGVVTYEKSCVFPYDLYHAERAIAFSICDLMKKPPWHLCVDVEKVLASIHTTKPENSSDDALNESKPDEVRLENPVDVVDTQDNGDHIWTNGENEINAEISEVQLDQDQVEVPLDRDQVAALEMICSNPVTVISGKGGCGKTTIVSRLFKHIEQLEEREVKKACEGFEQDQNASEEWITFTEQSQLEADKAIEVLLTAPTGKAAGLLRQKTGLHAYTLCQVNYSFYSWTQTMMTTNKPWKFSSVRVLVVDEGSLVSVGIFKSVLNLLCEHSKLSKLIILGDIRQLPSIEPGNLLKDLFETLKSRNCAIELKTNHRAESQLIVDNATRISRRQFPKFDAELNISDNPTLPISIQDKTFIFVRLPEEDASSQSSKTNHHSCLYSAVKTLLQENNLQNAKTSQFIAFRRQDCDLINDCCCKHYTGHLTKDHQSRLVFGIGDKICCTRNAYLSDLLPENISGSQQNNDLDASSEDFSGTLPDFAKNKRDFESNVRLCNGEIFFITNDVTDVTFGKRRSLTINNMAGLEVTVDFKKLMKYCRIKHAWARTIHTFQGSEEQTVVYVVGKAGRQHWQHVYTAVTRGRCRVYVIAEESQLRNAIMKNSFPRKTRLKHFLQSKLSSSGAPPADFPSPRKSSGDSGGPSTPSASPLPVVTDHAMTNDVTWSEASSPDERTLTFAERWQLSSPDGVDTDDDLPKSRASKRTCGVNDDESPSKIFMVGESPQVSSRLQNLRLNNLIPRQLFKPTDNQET

Chain of HELB WT (Q8NG08 whole entry): as the sequence (Q8NG08 whole entry D506G) above, with G506D counted along it

B1: 3'-FAM-T16 (ssDNA)
DNA: TTTTTTTTTTTTTTTT
For B1, the Kd was 3.4 ± 0.2 nM with HELB WT and 2.2 ± 0.4 nM with HELB D506G.

As usually defined, the Kd is the free concentration of one partner at which half of the binding sites on the other are occupied at equilibrium, for simple one-to-one binding.
